From the nanobody polyreactivity screen of Harvey et al. (2022)

assay: yeast display, Sf9 membrane polyspecificity reagent, FACS + sequencing; frameworks hold sequencing errors
Method in brief: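 In a synthetic yeast display library (Saccharomyces cerevisiae BJ5465), nanobody expression was induced with galactose for 36–48 hours. FACS gates were set low and high (top ~1%) using anti-HA fluorescence for expression and streptavidin fluorescence for binding of the Sf9 membrane reagent. Each polyreactivity label is drawn from the gate of origin.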

Sequence | polyreactivity (PSR sort gate)
QVQLVESGGGLVQAGGSLRLSCAAYGSIFALYAMGWYRPAPGKERELVARISSGGSTYYADSVKGRFTISRDNAKNTVYLQMNSLKPEDTAVYYCARYHKTHAVLRYDYWGQGTQVTVSS | low polyreactivity
QVQLVESGGGLVQAGGSLRLSCAAYGSIFGVNVMGWYRQSPGKERELVAAIDVSDTSTYYADSVKGRFTMSRDNAKNTVYLQLNSLKPDDTAVYYCAADGLRWWPFEYRFTFDYWGQGTQVTVSS | low polyreactivity
QVQLVESGGGLVQAGGSLRLSCAAYGSIFKRYAMGWYRQAPGKERELVASNSSSGSSTNYADSVKGRFTISRDTAKNTVYLQMNSLKPEDTSVYYCAADTKASGTPVYYSYLYDYWGQGTHVTVSS | high polyreactivity
QVQLVESGGGLVQAGGSLRLSCAAYGSIFWSYAMGWYIQAPGKERELVAGITRSGGSTYYSDSVKGRFTISRDNAKNPVYLQMISLKPEDTAVYYCNKAFGGDKYSGSYEYWGQGNQVTVSS | high polyreactivity
QVQLVESGGGLVQAGGSLRLSCAAYGSIIHANAMGWYRQAPGKERELVAAITGDGSTYYADSVKGRFTISRDNAKNTVYLQMNSLKPEDTAVYYCNAEYYSTYDSWGQGTQVTVSS | low polyreactivity
QVQLVESGGGLVQAGGSLRLSCAAYGSILGIYAMGGYRQAPGKERELVAAIRTSSASTYYADSVKGRFTISRDNAKNTVYLQMNSLKPEDSAVYYCAAYAFSYTPYYSWGQGTQVTVSS | high polyreactivity
QVQLVESGGGLVQAGGSLRLSCAAYGSTFFLYAMGWYRQAPGKVRELVAAITYTDGDTYYADSVKGRFTISRDNAKHTVYLQMNSLKPEDTAVYYCNAGGDEPVYGSGYDYWGQGTQVNVSS | low polyreactivity
QVQLVESGGGLVQAGGSLRLSCAAYGSTFRRNTMGWYRQAPGKERELVAGISSSGGSTYYADSVKGRFTISRDTAMNTVYLQMNSLKPEDTAVYYCAARYYVSYVGYNYWGQCTQVTVSS | high polyreactivity
QVQLVESGGGLVQAGGSLRLSCAAYGSTFSLNTMGWYRQAPGKERELVAAITSGGSTNYADSVKGRFTISRDNAKNTVYLQMNSLKPEDTSVYYCAATPGRGGGYNYWGQGTQVTVSS | low polyreactivity
QVQLVESGGGLVQAGGSLRLSCAAYGSTFTDYDMGWYRQAPGKERELVAAITSGGSTNYADSVKGRFTISRDNAKNTVYLQMNSLKPEDTAVYYCAAADADRKYDYWGQGTQVTVSS | low polyreactivity
QVQLVESGGGLVQAGGSLRLSCAAYGSTLTRNAMGWYRQAPGKERELVATITATGGSTYYADSVKGRFTISRDNAKNTVYLQMTSLKPEDTAVYYCNKVYREYSLSYWSPTHWAYYYWGQGTQVTVSS | low polyreactivity
QVQLVESGGGLVQAGGSLRLSCAAYGYTFGYYTMGWYRQAPWKERQLVASIDSGGGTNYADSVKGRFTISRDNAKNTVYLQMNSLKPEDTAVYYCAAESPLYWVDDFESGWRYYYWGQGTQVTVSS | low polyreactivity
QVQLVESGGGLVQAGGSLRLSCADSGFIFLGNARGWYRQAAGKERELVAASSSGGSTYADSVKGRFTISRDNAKNTVYLQMNSLKPEDTAVYYCALDPPFPAQNYHEDDYWGQGTQVTVAS | low polyreactivity
QVQLVESGGGLVQAGGSLRLSCADSGFIFWVYAMGWYRQAPGKERELVAAITSGGGSTYYADSVKGRFTISRDNAKNTVYLQMNSLKPEDTAVYYCATSLYTDNSWENYWGQGTQVTVSS | high polyreactivity
QVQLVESGGGLVQAGGSLRLSCADSGFIIFRYAMGWYRQAPGKERELVAAITDDGSTYADSVKGRFTISRDNAKNTVYLQMNSLKPEDTAVYYCNVQSKSSYWWFGYDYWGQRTQVTVSS | low polyreactivity
QVQLVESGGGLVQAGGSLRLSCADSGFTFATYAMGWYRQAPGKKGRLVAAISNAGSTKYADSVKGRFTISRDNAKNTFYLQLNSLKPEDTAVYYCAASTLYASYYYLYYYWGQGTQVTVSS | high polyreactivity
QVQLVESGGGLVQAGGSLRLSCADSGFTFCSYTMGWYRQAPGKERELVAAITGGGNTKYADSVKGRFTISRDNAKNTFYLQMISLKPEDSAVYYCARLSRYKSYYTSRFDYWGQGNQVTVSS | high polyreactivity
QVQLVESGGGLVQAGGSLRLSCADSGFTFGVYVMGWYRQAPAKERELVAAISRSGGSTYYADSVKGRFTISRDKAKNTVYLQMNCLKPEETAVYYCNADRLVSYRAGEYDYWGQGTQVTVSS | high polyreactivity
QVQLVESGGGLVQAGGSLRLSCADSGFTFKSYTMGWYRQAPGKERELVAAISRRDGSTYYADSVKGRFTISRDNAKNTVYLQMNSLKPEDTAVYYCAKVWYGDRNIDRYDYWGQGTQVTVSS | high polyreactivity
QVQLVESGGGLVQAGGSLRLSCADSGFTFSWYTMGWYRQAPGKERELVAALTVSGGSTYYADSVKGRFTISRDNAKNTVYLQMNSLKPEDTAVYYCNAQDPFTYYSSSPTYDYWGQGTQVTVSS | low polyreactivity
QVQLVESGGGLVQAGGSLRLSCADSGFTFWYYDMGWYRQAPGKERELVAAITNGGRTYYADSVKGRFTISRDNAKNTVYLQMNSLKPEDTAVYYCAVLGGHGFYQGDYWGQGTQVTVSS | high polyreactivity
QVQLVESGGGLVQAGGSLRLSCADSGFTYAYYVMGWYRQAPGKERELVAAISISGGRTYYADSVKGRFTISRDNAKNTVYLQMNSLKPEDTAVYYCAADRRTDGHDYWGQGTQVTVSS | high polyreactivity

Sequence | polyreactivity (PSR sort gate)
QVQLVESGGGLVQAGGSLRLSCADSGGTFESYAMGWYRQAPGKERELVAAITGRGGRTYYADSVKGRFTISRDNAKNTVYLQRNSLKPEDTAVYYCAARSPPRGYSRILDYWGQGTQVTVSS | high polyreactivity
QVQLVESGGGLVQAGGSLRLSCADSGGTFFGYAMGWYRQAPGKERELVAAIRWSDGRTYYADSVKGRFTISRDNAKNTVFLQMNSLKPEDTAVYYCNADDARLFDYWGQGTQVTVSS | low polyreactivity
QVQLVESGGGLVQAGGSLRLSCADSGIIFKGYDMGWYSQPPGKEREVVAAIYSGSTNYADSVKGRFTISRDNAKNTVYLQMNSLKPEDTAVYYCNSDLGRATFYQRVFIERGGYWGQGTQVTVSS | low polyreactivity
QVQLVESGGGLVQAGGSLRLSCADSGITFFIYAMGWYIQAPGKERELVAAISGRSGSTYYADSVKGRFTISRDNAKNTVYLQMNSLKPEDTAVYYCAAGLTFFSYSLDYWGQGTQVTVSS | low polyreactivity
QVQLVESGGGLVQAGGSLRLSCADSGITFPVNDMGWSRQAHGKEREFVADITSSGGNTYYADSVKGRFTISRDNAKNTVYLKMNSLIPEDTAVYYCNADDGYFYVYQGWYEEMDYWGQGNQVTVSS | high polyreactivity
QVQLVESGGGLVQAGGSLRLSCADSGITFSVYAMGWYRQAPGKERELVASISSGGTSTYYADSVKGRFTISRDNAKNTVYLQMNSQKPEDTAVYYCAAYSYYTGDQYSYDYWGQGTQVTVSS | low polyreactivity
QVQLVESGGGLVQAGGSLRLSCADSGITFWTNTMGWYRQAPGKERELVAVITSGGTTNYADSVKGRFTISRDNAKNTVYLQMNSLKPEDTAVYYCAKKYGYFGLHGYWGQGTQVTVSS | high polyreactivity
QVQLVESGGGLVQAGGSLRLSCADSGLTFYRYAMGWYRQAPGKERELVAAIRVSGNTYYADSVKGRFTISRDNAKNTVYLQMNSLKPEDTAVYYCAAKPYYFYGMDYWGQGTQVTVSS | high polyreactivity
QVQLVESGGGLVQAGGSLRLSCADSGNIFRSYKGWYRQAPGKERELVASISRRGGSTYYADSVKGRFTISRDNAKNTVYLQINSLKPEDSAVYYCARRWSWVNGVFGLYWGQGTQVTLSS | high polyreactivity
QVQLVESGGGLVQAGGSLRLSCADSGNTFPSYVMGWYRQAPGKERELVAAINRGGGTYYADSVKGRFTISRDNAKNTVYLQMNSLKPEDTAVYYCAVRYQRHPNMDYWGQGTQVTVSS | low polyreactivity
QVQLVESGGGLVQAGGSLRLSCADSGNTIYGYAMGWNRQAPGKERELVASITLSGDSTYYADSVKGRFTISRDNAKNTVFLQMNRLKPEDTSVYYCSGVYTYPLGYYHYTYDYWGQGSQVTVSS | low polyreactivity
QVQLVESGGGLVQAGGSLRLSCADSGRIFGYYAMGWYRQAPGKERELVAAITVSDGRTNYADSVKGRFTISRDNAKNTVYLQMNSLKPEDTAVYYCAAVTPFRVLYDYWGQGTQVTVSS | low polyreactivity
QVQLVESGGGLVQAGGSLRLSCADSGRIFHYNAMGWYRQAPRKERELVAAISTGGSTNYADSVKGRFTISRDNAKNTVYLQMNSLNPEDTAVYYCAADHPVTYPTSKFDYCGQGTQVTVSS | low polyreactivity
QVQLVESGGGLVQAGGSLRLSCADSGRIFRRYAMGWYRQAPGKERELVAAITTSGGSTYYADSVKGRFTISRDNAKNTVYLQMNSLKPEDTAVYYCNARSSVYGHRKGSARIPRYDYWGQGTQVTVSS | high polyreactivity
QVQLVESGGGLVQAGGSLRLSCADSGRIFVRKAMGWYRQAPGKERELVAAISARGGRTNYADSVKGRFTISRDNAKNTVYLQMNSLKPEDTAVYYCAADGLRAAYLYDYWGQGTQVTVSS | high polyreactivity
QVQLVESGGGLVQAGGSLRLSCADSGRIIPSYDMGWYRQAPGKERELVAVIRSSVDGTYYADSVKGRFTISRDNAKNTVYLQMNSLKPEDTAVYDCAADSLTPKSASDYWGQGTQVTVSS | low polyreactivity
QVQLVESGGGLVQAGGSLRLSCADSGRTFKFNAMGWYRQAPGKERELVVGITWTGSTTSYADSVKGRFTISRDNAKNTVYLQMNSLKPEDTAVYYCAADKIRFWYHGFYYRGQGTQVTVSS | low polyreactivity
QVQLVESGGGLVQAGGSLRLSCADSGRTFRNYAMGRYRQAPGKERELVATITSSGASTYYADSVKGRFTISRDNAKNTVYLQMNSLKPEDTAVYYCAARPYTGRYFLGYYYWGQGTQVTVSS | high polyreactivity
QVQLVESGGGLVQAGGSLRLSCADSGRTFRRYKMGWYRQAPGKERELVATISSGGSTYADSVKGRFTISRDNAKNTVYLQMNSLKPEDTAVYYCAARYDVAWYSKRYSWGQGTQVTVSS | high polyreactivity
QVQLVESGGGLVQAGGSLRLSCADSGRTFTGYVMGWYRQAPGKEREFVAVIRYRGGGTYYAYSVKGRFTISRDNAKNTVYLQMNSLKPEDTAVYYCSARWRYSYVGDFDYWGQGTQVTVSS | high polyreactivity
QVQLVESGGGLVQAGGSLRLSCADSGRTFTNNAMGWYIQAPGKERELVAAITSGGRTNYADSVKGRFTISRDNAKNTVYLQMNSLKPEDTAVYYCAARIPSDGYYYWGQGTQVTVSS | high polyreactivity
